Experiment: observed amide hydrogen exchange rate constant kobs (stretched exponential fit, FD-normalized) (s^-1); higher = faster H/D exchange (less protection)
Conditions: pH 3 (pH read); temperature: 20 °C; D2O: 88%
How it was run: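 Jurkat tryptic peptides (LysC/trypsin, carbamidomethylated cysteines) were labeled in 88% D2O, pHread 3, 20 °C, quenched with 0.23% formic acid at 13 times from 18 to 93,600 s, in processing triplicates. MS1 uptake (Q-Exactive HF, HDExaminer, no back-exchange correction) was normalized to full-deuteration controls (24 h, 37 °C). Curves were fitted to a stretched single exponential with β = 0.8. The observed exchange rate constant kobs is the fitted rate.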

Q: For NPPGFAFVEFEDPRDAADAVR, which “observed amide hydrogen exchange rate constant kobs” value is on record?
A: 0.00134

Q: With HLQLAIRNDEELNK as the substance, how does the “observed amide hydrogen exchange rate constant kobs” value read?
A: 0.00184

Q: With CPNLTHLNLSGNK as the substance, how does the “observed amide hydrogen exchange rate constant kobs” value read?
A: 0.00139

Q: Which “observed amide hydrogen exchange rate constant kobs” value does the source give for VHIEIGPDGR here?
A: 0.00136

Q: Which “observed amide hydrogen exchange rate constant kobs” value does the source give for IWDLEGK here?
A: 0.00103

Q: Which “observed amide hydrogen exchange rate constant kobs” value does the source give for SGYLAGDK here?
A: 0.00168

Q: Which “observed amide hydrogen exchange rate constant kobs” value does the source give for QSKPVTTPEEIAQVATISANGDK here?
A: 0.000917

Q: With TEWLDGK as the substance, how does the “observed amide hydrogen exchange rate constant kobs” value read?
A: 0.00181

Q: For TVTNAVVTVPAYFNDSQR, which “observed amide hydrogen exchange rate constant kobs” value is on record?
A: 0.000806

Q: Which “observed amide hydrogen exchange rate constant kobs” value does the source give for GVVDSEDLPLNISR here?
A: 0.0013

Q: For IKGEHPGLSIGDVAK, which “observed amide hydrogen exchange rate constant kobs” value is on record?
A: 0.00174

Q: With YLTVAAVFR as the substance, how does the “observed amide hydrogen exchange rate constant kobs” value read?
A: 0.000527

Q: For AVDSQILPK, which “observed amide hydrogen exchange rate constant kobs” value is on record?
A: 0.000865

Q: For ESTLHLVLR, which “observed amide hydrogen exchange rate constant kobs” value is on record?
A: 0.00129

Q: Which “observed amide hydrogen exchange rate constant kobs” value does the source give for AHSSMVGVNLPQK here?
A: 0.000759

Q: For VTLDWAK, which “observed amide hydrogen exchange rate constant kobs” value is on record?
A: 0.00095

Q: Which “observed amide hydrogen exchange rate constant kobs” value does the source give for TFFSFPAVVAPFK here?
A: 0.000546

Q: For NIIHGSDSVESAEK, which “observed amide hydrogen exchange rate constant kobs” value is on record?
A: 0.00215

Q: With RALEQQVEEMK as the substance, how does the “observed amide hydrogen exchange rate constant kobs” value read?
A: 0.000806

Q: Which “observed amide hydrogen exchange rate constant kobs” value does the source give for TAMSTPHVAEPAENEQDEQDENGAEASADLR here?
A: 0.00244

Q: Which “observed amide hydrogen exchange rate constant kobs” value does the source give for NQGGYGGSSSSSSYGSGR here?
A: 0.00275

Q: Which “observed amide hydrogen exchange rate constant kobs” value does the source give for LGEMWNNTAADDKQPYEK here?
A: 0.00171

Q: For MVLVGDVK, which “observed amide hydrogen exchange rate constant kobs” value is on record?
A: 0.000602

Q: With SFYPEEVSSMVLTK as the substance, how does the “observed amide hydrogen exchange rate constant kobs” value read?
A: 0.000867

Q: With NVTLPAVFK as the substance, how does the “observed amide hydrogen exchange rate constant kobs” value read?
A: 0.000481

Q: Which “observed amide hydrogen exchange rate constant kobs” value does the source give for VVSSIEQK here?
A: 0.00104

Q: For GVNLPGAAVDLPAVSEK, which “observed amide hydrogen exchange rate constant kobs” value is on record?
A: 0.0011

Q: Which “observed amide hydrogen exchange rate constant kobs” value does the source give for TLNDELEIIEGMK here?
A: 0.000994

Q: For LGFAGLVQEISFGTTK, which “observed amide hydrogen exchange rate constant kobs” value is on record?
A: 0.001

Q: For ILEFFGLK, which “observed amide hydrogen exchange rate constant kobs” value is on record?
A: 0.00112

Q: With EANNFLWPFK as the substance, how does the “observed amide hydrogen exchange rate constant kobs” value read?
A: 0.000958

Q: With RAPFDLFENK as the substance, how does the “observed amide hydrogen exchange rate constant kobs” value read?
A: 0.00167

Q: Which “observed amide hydrogen exchange rate constant kobs” value does the source give for IAIYELLFK here?
A: 0.000527

Q: With VFEGNRPTNSIVFTK as the substance, how does the “observed amide hydrogen exchange rate constant kobs” value read?
A: 0.000712

Q: For SVVLMSHLGRPDGVPMPDK, which “observed amide hydrogen exchange rate constant kobs” value is on record?
A: 0.00138

Q: With LIINSLYK as the substance, how does the “observed amide hydrogen exchange rate constant kobs” value read?
A: 0.00064

Q: For PVHHGVNQLK, which “observed amide hydrogen exchange rate constant kobs” value is on record?
A: 0.00235

Q: With DAGTIAGLNVLR as the substance, how does the “observed amide hydrogen exchange rate constant kobs” value read?
A: 0.000899

Q: Which “observed amide hydrogen exchange rate constant kobs” value does the source give for FHGTVK here?
A: 0.00166

Q: For GRGARGGKAEDK, which “observed amide hydrogen exchange rate constant kobs” value is on record?
A: 0.00275

Q: For IMATPEQVGK, which “observed amide hydrogen exchange rate constant kobs” value is on record?
A: 0.000917

Q: With HIADLAGNSEVILPVPAFNVINGGSHAGNK as the substance, how does the “observed amide hydrogen exchange rate constant kobs” value read?
A: 0.00138

Q: For LNEHFLNTTDFLDTIK, which “observed amide hydrogen exchange rate constant kobs” value is on record?
A: 0.00161

Q: Which “observed amide hydrogen exchange rate constant kobs” value does the source give for GEGQLGPAER here?
A: 0.0023

Q: For LIDDMVAQVLK, which “observed amide hydrogen exchange rate constant kobs” value is on record?
A: 0.000612

Q: Which “observed amide hydrogen exchange rate constant kobs” value does the source give for LLEVEHPAAK here?
A: 0.00188

Q: Which “observed amide hydrogen exchange rate constant kobs” value does the source give for GIGYLK here?
A: 0.00124

Q: Which “observed amide hydrogen exchange rate constant kobs” value does the source give for EQVANSAFVER here?
A: 0.00104

Q: With VDFNVPMK as the substance, how does the “observed amide hydrogen exchange rate constant kobs” value read?
A: 0.000994

Q: Which “observed amide hydrogen exchange rate constant kobs” value does the source give for VESQLIGK here?
A: 0.00139

Q: With GNFGGSFAGSFGGAGGHAPGVAR as the substance, how does the “observed amide hydrogen exchange rate constant kobs” value read?
A: 0.00196

Q: With NNQFQALLQYADPVSAQHAK as the substance, how does the “observed amide hydrogen exchange rate constant kobs” value read?
A: 0.000863

Q: Which “observed amide hydrogen exchange rate constant kobs” value does the source give for DSTLIMQLLR here?
A: 0.000608

Q: For LAVNMVPFPR, which “observed amide hydrogen exchange rate constant kobs” value is on record?
A: 0.000639

Q: Which “observed amide hydrogen exchange rate constant kobs” value does the source give for HIYYITGETK here?
A: 0.00121

Q: With SADTLWDIQK as the substance, how does the “observed amide hydrogen exchange rate constant kobs” value read?
A: 0.000935

Q: Which “observed amide hydrogen exchange rate constant kobs” value does the source give for LQAALDDEEAGGRPAMEPGNGSLDLGGDSAGR here?
A: 0.00232

Q: For VLNTNIDGR, which “observed amide hydrogen exchange rate constant kobs” value is on record?
A: 0.00162

Q: For DLSLEEIQK, which “observed amide hydrogen exchange rate constant kobs” value is on record?
A: 0.00108

Q: Which “observed amide hydrogen exchange rate constant kobs” value does the source give for ESYSVYVYK here?
A: 0.000648

Q: With YNQLLR as the substance, how does the “observed amide hydrogen exchange rate constant kobs” value read?
A: 0.000842

Q: For VEIIANDQGNR, which “observed amide hydrogen exchange rate constant kobs” value is on record?
A: 0.00189

Q: Which “observed amide hydrogen exchange rate constant kobs” value does the source give for DQIYDIFQK here?
A: 0.000729

Q: With QIVWNGPVGVFEWEAFAR as the substance, how does the “observed amide hydrogen exchange rate constant kobs” value read?
A: 0.00105

Q: Which “observed amide hydrogen exchange rate constant kobs” value does the source give for TIIPLISQCTPK here?
A: 0.000921

Q: With LVIITAGAR as the substance, how does the “observed amide hydrogen exchange rate constant kobs” value read?
A: 0.000717

Q: With ALTSELANAR as the substance, how does the “observed amide hydrogen exchange rate constant kobs” value read?
A: 0.00115

Q: For DNSTMGYMMAK, which “observed amide hydrogen exchange rate constant kobs” value is on record?
A: 0.00115

Q: Which “observed amide hydrogen exchange rate constant kobs” value does the source give for AAIDWFDGK here?
A: 0.00155

Q: For AAVPSGASTGIYEALELRDNDK, which “observed amide hydrogen exchange rate constant kobs” value is on record?
A: 0.00126

Q: Which “observed amide hydrogen exchange rate constant kobs” value does the source give for IYVDDGLISLQVK here?
A: 0.000841

Q: For RAAEDDEDDDVDTKK, which “observed amide hydrogen exchange rate constant kobs” value is on record?
A: 0.0039

Q: For SVPTSTVFYPSDGVATEK, which “observed amide hydrogen exchange rate constant kobs” value is on record?
A: 0.000911

Q: With IMNTFSVVPSPK as the substance, how does the “observed amide hydrogen exchange rate constant kobs” value read?
A: 0.000631

Q: Which “observed amide hydrogen exchange rate constant kobs” value does the source give for EDQTEYLEER here?
A: 0.00222

Q: Which “observed amide hydrogen exchange rate constant kobs” value does the source give for GLAPDLPEDLYHLIK here?
A: 0.00112

Q: For VAVLGASGGIGQPLSLLLK, which “observed amide hydrogen exchange rate constant kobs” value is on record?
A: 0.000683

Q: Which “observed amide hydrogen exchange rate constant kobs” value does the source give for DSYVGDEAQSK here?
A: 0.00207

Q: For FVSISDLLVPK, which “observed amide hydrogen exchange rate constant kobs” value is on record?
A: 0.000665

— the supplement of paper PMC11875167
